Broadly, the stoichiometry N is the number of molecules, sites or subunits per partner or assembly.

Stoichiometry N data for 2 substances are collected here from PMC11676905.

The target in assay [1] is rTBL-1 R103Q mutant lectin (Phaseolus acutifolius). The assay can be described thus: SEC; ENrich SEC 650 column calibrated with gel filtration standard; 200 µL of sample at 10 mg/mL; 20 mM MES, 100 mM NaCl, pH 6.5; single peak at approximately 120 kDa.
Assay [2] concerns the target rTBL-1 R130Q mutant lectin (Phaseolus acutifolius). The assay is described as above.

Regarding “rTBL-1 R103Q mutant lectin (natural protein)”, the stoichiometry N in assay [1] amounted to 4. In assay [2], “rTBL-1 R130Q mutant lectin (natural protein)” showed a stoichiometry N of 4.
